The format of data set [1] is physicochemical. The conditions noted are these: ADC with Her2 antibody, RP-HPLC-MS. A digest of the protocol: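 ADC at 1 mg/ml reduced with 50 mmol/L DTT in Tris pH 8.0 for 30 min at 37 °C, then light and heavy chains separated by RP-HPLC on a PLRP-S column at 70 °C. Deconvoluted masses assigned drug load per peak; weighted average DAR calculated from UV peak area percentages.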

Data set [2] in a line: Polymer (high molecular component) content of antibody-drug conjugates by SE-HPLC. The data set is classed as physicochemical. The settings on record: ADC with Her2 antibody. The method, boiled down:
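SE-HPLC on 7.8×300 mm SEC column with 50 mM phosphate, 300 mM NaCl (pH 6.8) mobile phase at 0.5 mL/min; high-molecular-weight content determined by area normalization.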

Data set [3] is described as follows: Naked antibody content of antibody-drug conjugates by hydrophobic interaction chromatography (HIC). The data set is classed as physicochemical. The conditions noted are these: ADC with Her2 antibody.
Another data set concerns gastric cancer NCI-N87. Nature of the data set: In vivo anti-tumor effect, gastric cancer NCI-N87 tumor model. The conditions noted are these: NCI-N87 subcutaneous model, FIG. 10, FIG. 11. The arrangement: species or system mouse. How it is done:
(§1) Tumor cells (ovarian cancer SKOV-3, gastric cancer NCI-N87, and breast cancer JIMT-1) were cultured in a medium and maintained in a 37° C. saturated humidity incubator containing 5% CO2, respectively.
(§2) Tumor cells in a logarithmic growth phase were collected and re-suspended in a basic medium, and the concentration of cells was adjusted to 4×10^7/mL. Under sterile conditions, 0.1 mL of cell suspension was inoculated subcutaneously into the right armpit of a mouse at a concentration of 4×10^6 Cells/0.1 mL/mouse.
(§3) When the tumor volume reached around 200 mm^3, animals were randomly grouped according to the tumor volume, where the difference in tumor volume between the groups was less than 10% of the mean. The grouping day was recorded as Day 0, and administration started according to the body weight of the animals. In the administration period, if the body weight of individual animals decreased by more than 15% compared to that on Day 0 (BWL≥15%), the administration was stopped until the body weight of the animals recovered (BWL<15%), and then the administration recovered.
(§4) During the experiment, the body weight of the animals and the tumor volume were measured 2 times a week, and clinical symptoms of the animals were observed and recorded every day.

In the next data set the test system is breast cancer JIMT-1. Kind of data set: In vivo anti-tumor effect, breast cancer JIMT-1 tumor model. The arrangement: species or system mouse. The settings on record: JIMT-1 subcutaneous model, FIG. 10. The protocol:
as §1, §2, §3, §4

A short description of data set [4]: Stability (placement) test of ADCs at 40° C. in dark for 14 days, DAR and polymer content. In kind it is physicochemical. A digest of the protocol: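 ADCs stored at 40° C in dark, sampled on days 0, 7 and 14. Polymer content by SE-HPLC (50 mM phosphate, 300 mM NaCl, pH 6.8), area normalization. DAR by RP-HPLC-MS after reduction (1 mg/ml in 50 mmol/L Tris pH 8.0, 50 mmol/L DTT, 37° C, 30 min): deconvoluted chain masses assign drug load, weighted average from UV peak areas.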

Data set [5] is described as follows: Plasma stability of ADCs, generated payload by LC-MS/MS, mouse plasma. The data set is classed as in vitro ADME, CD-1 mice. The settings on record: 37° C., 100 μg/mL, up to 21 d, FIG. 7-9. The protocol: (§5) In order to further evaluate the characteristics of ADCs, the plasma stability of ADCs was tested. The plasma stability was tested by the following steps:
(§6) A test sample stock solution was diluted with ultra-pure water into a working solution having a concentration of 2.5 mg/mL. The working solution was prepared as needed and used at room temperature.
(§7) Follow the following steps to test plasma samples: • (1) 980 μL of plasma was collected from blank CD-1 mice, monkeys, and humans (experimental group N=2, control group N=1) and pre-incubated at 37° C. for 5 minutes; • (2) 20 μL of test compound working solution (or positive control drug (payload) working solution) was added, followed by vortex mixing (final concentration of the test compound was 100 μg/mL, and final concentration of the positive control drug was 1 μM). 50 μL of plasma sample was immediately added into 150 μL of ice precipitant, followed by vortex mixing as a 0 h sample; • (3) The remaining plasma samples were sealed and further incubated at 37° C., and 50 μL of each plasma sample was pipetted into 150 μL of ice precipitant according to preset time points in Table 3, followed by vortex mixing; […]
(§8) The samples were analyzed using liquid chromatography-tandem mass spectrometry (LC-MS/MS) to measure the quantity of a generated payload, where the quantities of two payloads were measured for dual toxin ADCs respectively.

Data set [6] can be described thus: Plasma stability of ADCs, generated payload by LC-MS/MS, monkey plasma. In kind it is in vitro ADME, monkeys. The settings on record: 37° C., 100 μg/mL, up to 21 d, FIG. 7-9. The protocol: as §5, §6, §7, §8
Data set [7] in a line: Plasma stability of ADCs, generated payload by LC-MS/MS, human plasma. The settings on record: 37° C., 100 μg/mL, up to 21 d, FIG. 7-9. In kind it is in vitro ADME, humans. The protocol: as §5, §6, §7, §8

Read-outs that look alike come from different tables or passages of the source. *1 amine or outer side, *2 acyl side, *3 side chain or, on linkers, in order; H or OH if unused. Where a SMILES comes first, the peptide text is derived from it. [ ]: non-standard residue; d: D form. The star is where a group is joined. Exatecan = CC[C@@]1(O)C(=O)OCc2c1cc1n(c2=O)Cc2c-1nc1cc(F)c(C)c3c1c2[C@@H](N*)CC3; Propanoyl(3-maleimido) = O=C1C=CC(=O)N1CCC(=O)*; X1 = O=C(CN1CCOCCN([*:1])CCOCC1)[*:2]; NHCH2OCH2CO = O=C(COCN[*:1])[*:2]

For `C=C1C[C@@H]2CC[C@@]34C[C@H]5OC6C(O[C@H]7CC[C@H](CC(=O)C[C@@H]8[C@@H](OC)[C@@H](C[C@H](O)CNC(=O)CNC(=O)[C@H](Cc9ccccc9)NC(=O)CNC(=O)CNC(=O)CCCCCN9C(=O)C=CC9=O)O[C@H]8C[C@H]8O[C@@H](CC[C@@H]1O2)C[C@@H](C)C8=C)O[C@@H]7[C@@H]6O3)[C@H]5O4` [Comparative Example 4, reference compound], the DAR in data set [1] was 3.01. The “Polymer content (%)” value in data set [2] is recorded as 10.73%. Also, the “Naked antibody content (%)” value in [3] is on record as 8.01%. The “in vivo anti-tumor effect on gastric cancer” value in the data set on gastric cancer NCI-N87 is reported as “poor anti-tumor effects”. Besides, the “in vivo anti-tumor effect on breast cancer” value in the data set with breast cancer JIMT-1 is on record as “poor anti-tumor effects”.

`C=C1C[C@@H]2CC[C@@]34C[C@H]5OC6C(O[C@H]7CC[C@H](CC(=O)C[C@@H]8[C@@H](OC)[C@@H](C[C@H](O)CNC(=O)CNC(=O)[C@H](Cc9ccccc9)NC(=O)CNC(=O)CNC(=O)CCOCCOCCN(CCOCCOCCC(=O)NCC(=O)NCC(=O)N[C@@H](Cc9ccccc9)C(=O)NCC(=O)NCOCC(=O)N[C@H]9CCc%10c(C)c(F)cc%11nc%12c(c9c%10%11)Cn9c-%12cc%10c(c9=O)COC(=O)[C@]%10(O)CC)C(=O)CN9CCOCCOCCOCCOCCN(C(=O)CCOCCOCCOCCOCCC%10C(=O)C=CC%10=O)CCOCCOCCOCCOCC9)O[C@H]8C[C@H]8O[C@@H](CC[C@@H]1O2)C[C@@H](C)C8=C)O[C@@H]7[C@@H]6O3)[C@H]5O4` [Example 13]: the DAR is 4.02 in data set [1]; 4.02 in [4] (Day 0, 40° C. in dark); 4.02 in [4] (Day 7, 40° C. in dark); 4.04 in [4] (Day 14, 40° C. in dark). In addition, the “Polymer content (%)” value in data set [2] is given as 0.77%; in [4] (Day 0, 40° C. in dark) it was 0.77%; in [4] (Day 7, 40° C. in dark), 0.78%; in data set [4] (Day 14, 40° C. in dark) it was 0.91%. Also, the “Naked antibody content (%)” value in data set [3] is 5.02%. In addition, in data set [5], the “stability in the plasma of mice” value is reported as “significantly better”. Further, the “stability in the plasma of monkeys” value in [6] is given as “significantly better”. Also, the “stability in the plasma of humans” value in data set [7] is recorded as “significantly better”.

For the molecule `CC[C@@]1(O)C(=O)OCc2c1cc1n(c2=O)Cc2c-1nc1cc(F)c(C)c3c1c2[C@@H](NC(=O)COCNC(=O)CNC(=O)[C@H](Cc1ccccc1)NC(=O)CNC(=O)CNC(=O)CN1CCOCCN(C(=O)CCN2C(=O)C=CC2=O)CCOCC1)CC3` [Example 22] ({Propanoyl(3-maleimido)}-[X1]GGFG[NHCH2OCH2CO]-Exatecan), the DAR turned out to be 4.14 in [1]; 4.14 in data set [4] (Day 0, 40° C. in dark); 4.12 in data set [4] (Day 7, 40° C. in dark); 4.15 in [4] (Day 14, 40° C. in dark). The “Polymer content (%)” value in [2] worked out at 0.76%; in data set [4] (Day 0, 40° C. in dark), 0.76%; in data set [4] (Day 7, 40° C. in dark) it was 0.81%; in data set [4] (Day 14, 40° C. in dark), 0.78%. For the same molecule, in data set [3], the “Naked antibody content (%)” value stood at 0.00%. The “stability in the plasma of mice” value in [5] was “significantly better”. Moreover, the “stability in the plasma of monkeys” value in data set [6] is on record as “significantly better”. Moreover, the “stability in the plasma of humans” value in data set [7] was “significantly better”.

In the case of `C=C1C[C@@H]2CC[C@@]34C[C@H]5OC6C(O[C@H]7CC[C@H](CC(=O)C[C@@H]8[C@@H](OC)[C@@H](C[C@H](O)CNC(=O)CNC(=O)[C@H](Cc9ccccc9)NC(=O)CNC(=O)CN9CCOCCOCCN(C(=O)CCCCCN%10C(=O)C=CC%10=O)CCOCCOCC9)O[C@H]8C[C@H]8O[C@@H](CC[C@@H]1O2)C[C@@H](C)C8=C)O[C@@H]7[C@@H]6O3)[C@H]5O4` [Example 40], the DAR in [1] was 3.78; in data set [4] (Day 0, 40° C. in dark), 3.78; in [4] (Day 7, 40° C. in dark), 3.75; in data set [4] (Day 14, 40° C. in dark), 3.74. Moreover, the “Polymer content (%)” value in [2] was 1.29%; in data set [4] (Day 0, 40° C. in dark) it was 1.29%; in data set [4] (Day 7, 40° C. in dark), 1.31%; in data set [4] (Day 14, 40° C. in dark), 1.41%. In addition, the “Naked antibody content (%)” value in data set [3] is 4.27%. For the same molecule, the “in vivo anti-tumor effect on gastric cancer” value in the data set with gastric cancer NCI-N87 is reported as “significantly better”.

The values are drawn from US20240293570A1 (priority 2021, published 2024).
